{"source": "patent US20240190946A1", "about": "(AUGMENTA BIOWORKS, published 2024)", "binders": {"B1": {"name": "SC2 antibody 3705 (scFv)", "scFv": "LEIVMTQSPATLSVSPGERATLSCRASQSVSNNLAWYQQKPGQAPRLLIYGASTRATGIPARFSGSGSGTEFTLTISSLQSEDFAVYYCQQYNDWPPSWTFGQGTKVEIKGGGGSGGGGSGGGGSQVQLVQSGAEVMQVGASVKVSCKASGYTFTSYGISWVRQAPGQGLEWMGWINTYNGNTNYAQKLQGRVTMTTDTSTTTAYMELRSLRSDDTAVYYCARVAVGYCSGGSCYYFDYWGQGTLVTVSSGGGGSGGQHHHHHHGAEQKLISEEDLGSGKPIPNPLLGLDSTS", "notes": "also called Anti-SARS-COV-2 antibody 3705"}, "B2": {"name": "anti-SARS-COV-2 (SC2) antibody 3417 (antibody, V domains shown)", "VH": "QVQLQESGPGLLKPSQTLSLTCTVSGVSIRNSNYFWNWIRRPAGKGLEWIGRMHSGGTTNYNPSLKSRVTVSSDAARNQFSLELTSVTAADTAVYYCARDDPLNRFAAFQIWGRGTLVTVSS", "VL": "QSVLTQPPSVSAAPGQKVTISCSGSSSNIGNKYISWYQQLPGTAPKLLIYDNNKRPSGIPDRFSGSKSGTSATLGITGLQTGDEADYYCGTWDSSLSVFYVFGTGTKVTVLG", "notes": "also called SC2 Ab 3417"}, "B3": {"name": "SC2 antibody 3396 (antibody, V domains shown)", "VH": "GVQLVESGGGLVQPGRSLRVSCAASGFTFADYAMHWVRQAPGKGLEWVSGISWNSGNIAYADSVKGRFTISRDNAKNSLYLQMDSLRPDDTALYYCVKASTLYYYFYMDVWGKGTTVTVSS", "VL": "QSALTQPPSASGSPGQSVTISCTGTSSDVGGYDYVSWYQQHPGKAPKFMIYEVSKRPSGVPDRFSGSKSGNTASLTVSGLQAEDEADYYCCSYAGSNNYVFGTGTKVTVLG", "notes": "also called Anti-SARS-COV-2 antibody 3396"}, "B4": {"name": "SC2 antibody 3387 (antibody, V domains shown)", "VH": "QVQLVQSGAEVMQVGASVKVSCKASGYTFTSYGISWVRQAPGQGLEWMGWINTYNGNTNYAQKLQGRVTMTTDTSTTTAYMELRSLRSDDTAVYYCARVAVGYCSGGSCYYFDYWGQGTLVTVSS", "VL": "not shown"}, "B5": {"name": "SC2 antibody 3388 (antibody, V domains shown)", "VH": "QVQLVESGGGVVQPGRSLRLSCAASGFTFSSYAMHWVRQAPGKGLEWVAVISYDGSNKYYADSVKGRFTISRDNSKNTLYLQMNSLRAEDTAVYYCAREGNIVATISLDYWGQGTLVTVSS", "VL": "not shown", "notes": "also called Anti-SARS-COV-2 antibody 3388"}, "B6": {"name": "SC2 antibody 3908 (antibody, V domains shown)", "VH": "EVQLVESRGGLVQPGGSLRLSCAATGFTLSSFDMHWVRQATGKGLEWVSAIGTAGDTYYPGSVKGRFTISRENAKNSLYLQMNSLRAGDTAVYYCARGTWLRDYNFWSGYNYYFDYWGQGTLVTVSS", "VL": "B3 VL with D33I, F48L, M49I, C91S, G95D, T103S, K106R", "notes": "also called Anti-SARS-COV-2 antibody 3908"}, "B7": {"name": "SC2 antibody 3947 (antibody, V domains shown)", "VH": "QLQLQESGSGLVKPSQTLSLTCAVSGGSVSSGGYSWSWIRQPPGKGLEWIGYIYDSGITSYNPSLKSRLTISIDRSKNQFSLGLSSVTAADTAVYYCARVRRNTSGSFSTGHFDYWGQGTLVTVSS", "VL": "QSVLTQPPSVSASPGQTVTISCSGSTSNIGGNYVSWYQHLPGTAPKLLIYDSNKRPSGIPDRFSGSKSGTSATLGITGLQTEDEADYYCGTWDYRLSGAVFGGGTKLTVL", "notes": "also called Anti-SARS-COV-2 antibody 3947"}, "B8": {"name": "SC2 antibody 3969 (antibody, V domains shown)", "VH": "QVQLVESGGGVVQPGRSLRLSCAASGFTFSSYGMHWVRQAPGKGLEWVAVISYDGSNKYYADSVKGRFTISRDNSKNTLYLQMNSLRAEDTAVYYCAKGVGDYAVWGQGTLVTVSS", "VL": "QSALTQPASVSGSPGQSITISCTGTNSDIGGYDYVSWYQQHPGKAPKLMIFDVNNRPSGVSNRFSGSKSGNTASLTISELQSADEADYFCSSFSTRNSLVVFGGGTKLTVL", "notes": "also called Anti-SARS-COV-2 antibody 3969"}, "B9": {"name": "SC2 antibody 4083 (antibody, V domains shown)", "VH": "B7 VH", "VL": "QSVLTQPPSVSAVPGQKVTISCSGNNSNIGNNLVSWYQQLPGTAPKLLIYNNNRRPSGIPDRFSGSKSGTSATLGITGLQTGDEAAYYCAARDSSLSAVVFGGGTKLTVL", "notes": "also called Anti-SARS-COV-2 antibody 4083"}}, "key": {"[1]": {"biological_target": "SARS-COV-2 spike (1+2) protein on pseudotyped lentivirus (SARS-COV-2, UniProt P0DTC2 14-1273)", "experiment": "cell-based or functional assay"}, "[2]": {"biological_target": "T1, Sino CoV2 RBD (Receptor Binding Domain) (SARS-COV-2, UniProt P0DTC2 319-541)", "experiment": "instrument not stated"}, "[3]": {"biological_target": "T2, NAC CoV2 S1 (SARS-COV-2, UniProt P0DTC2 14-674)", "T2 construct": "domain: S1", "experiment": "instrument not stated"}, "[4]": {"biological_target": "T1, Sino CoV2 RBD (Receptor Binding Domain)", "experiment": "Carterra LSA; Carterra LSA"}, "[5]": {"biological_target": "T3, Sino CoV2 S2 (spike protein 2) (SARS-COV-2, UniProt P0DTC2 686-1213)", "T3 construct": "domain: S2 (spike protein 2)", "experiment": "Carterra LSA; Carterra LSA"}, "[6]": {"biological_target": "T1, Sino CoV2 RBD (Receptor Binding Domain)", "experiment": "ForteBio; ForteBio"}, "[7]": {"biological_target": "T3, Sino CoV2 S2 (spike protein 2)", "experiment": "ForteBio; ForteBio"}, "[8]": {"biological_target": "T3, Sino CoV2 S2 (spike protein 2)", "experiment": "Carterra LSA"}, "[9]": {"biological_target": "T1, Sino CoV2 RBD (Receptor Binding Domain)", "experiment": "Carterra LSA"}, "[10]": {"biological_target": "T4, Sino SARS1 S1 (SARS1, UniProt P59594 14-667)", "T4 construct": "domain: S1", "experiment": "Carterra LSA"}}, "note": "Numbering of substitutions follows the chain as printed."}
{"binder": "B1", "values": [{"measurement": "neutralization of infection of HEK293 cells by spike-pseudotyped lentivirus", "setting": "[1]", "value": 100, "unit": "%"}, {"measurement": "Kd", "setting": "[2]", "value": 1.3, "unit": "nM"}, {"measurement": "Kd", "setting": "[3]", "value": 57, "unit": "nM"}]}
{"binder": "B2", "values": [{"measurement": "Kd", "setting": "[4]", "value": 7.2, "unit": "nM"}, {"measurement": "Kd", "setting": "[5]", "value": 63, "unit": "nM"}, {"measurement": "Kd", "setting": "[6]", "value": "< 0.001", "unit": "nM"}, {"measurement": "neutralization of infection of HEK293 cells by spike-pseudotyped lentivirus", "setting": "[1]", "value": "~70", "unit": "%"}]}
{"binder": "B3", "values": [{"measurement": "Kd", "setting": "[6]", "value": 22, "unit": "nM"}, {"measurement": "Kd", "setting": "[7]", "value": 122, "unit": "nM"}, {"measurement": "neutralization of infection of HEK293 cells by spike-pseudotyped lentivirus", "setting": "[1]", "value": "~50", "unit": "%"}]}
{"binder": "B4", "values": [{"measurement": "neutralization of infection of HEK293 cells by spike-pseudotyped lentivirus", "setting": "[1]", "value": "~45", "unit": "%"}]}
{"binder": "B5", "values": [{"measurement": "Kd", "setting": "[5]", "value": 10, "unit": "nM"}]}
{"binder": "B6", "values": [{"measurement": "Kd", "setting": "[7]", "value": 74, "unit": "nM"}]}
{"binder": "B7", "values": [{"measurement": "Kd", "setting": "[8]", "value": 25, "unit": "nM"}]}
{"binder": "B8", "values": [{"measurement": "Kd", "setting": "[9]", "value": 105, "unit": "nM"}, {"measurement": "Kd", "setting": "[10]", "value": 28, "unit": "nM"}]}
{"binder": "B9", "values": [{"measurement": "Kd", "setting": "[8]", "value": 41, "unit": "nM"}]}
